Laboratory results reported in publication PMC3674885.
Like-named read-outs stand apart in the source and are kept apart here.

B1: Δ9/13 NGF mutein (protein)
chain: SSTHPVFHMGEFSVCDSVSVWVGDKTTATDIKGKEVTVLAEVNINNSVFRQYFFETKCRASNPVESGCRGIDSKHWNSYCTTTHTFVKALTTDEKQAAWRFIRIDTACVCVLSRKATRRG

Key:
[1] = target: TrkA receptor (rat) on MG139 cells (rat) (UniProt P35739); test: radioligand binding
[2] = target: TrkA receptor (rat) on MG139 cells (rat) (UniProt P35739)
[3] = target: both classes of receptors (TrkA and p75) on PC12 cells (rat (endogenous in PC12)); test: radioligand binding
[4] = target: TrkA receptor (rat) on MG139 cells (rat) (UniProt P35739); test: radioligand binding; remark: listed apart in the source
[5] = target: both classes of receptors (TrkA and p75) on PC12 cells (rat (endogenous in PC12)); test: radioligand binding; remark: listed apart in the source
[6] = target: high-affinity site on PC12 cells (cold-temperature, cold-chase stable binding) (rat (endogenous in PC12)); test: radioligand binding
[7] = target: 7-84-103 NGF mutein (F7A/H84A/R103A); test: native gel or EMSA + other: high-performance ion-exchange chromatography; conditions: native gel or EMSA + other: high-performance ion-exchange chromatography (HPIEC)

Chain of UniProt P35739 (P35739 33-799): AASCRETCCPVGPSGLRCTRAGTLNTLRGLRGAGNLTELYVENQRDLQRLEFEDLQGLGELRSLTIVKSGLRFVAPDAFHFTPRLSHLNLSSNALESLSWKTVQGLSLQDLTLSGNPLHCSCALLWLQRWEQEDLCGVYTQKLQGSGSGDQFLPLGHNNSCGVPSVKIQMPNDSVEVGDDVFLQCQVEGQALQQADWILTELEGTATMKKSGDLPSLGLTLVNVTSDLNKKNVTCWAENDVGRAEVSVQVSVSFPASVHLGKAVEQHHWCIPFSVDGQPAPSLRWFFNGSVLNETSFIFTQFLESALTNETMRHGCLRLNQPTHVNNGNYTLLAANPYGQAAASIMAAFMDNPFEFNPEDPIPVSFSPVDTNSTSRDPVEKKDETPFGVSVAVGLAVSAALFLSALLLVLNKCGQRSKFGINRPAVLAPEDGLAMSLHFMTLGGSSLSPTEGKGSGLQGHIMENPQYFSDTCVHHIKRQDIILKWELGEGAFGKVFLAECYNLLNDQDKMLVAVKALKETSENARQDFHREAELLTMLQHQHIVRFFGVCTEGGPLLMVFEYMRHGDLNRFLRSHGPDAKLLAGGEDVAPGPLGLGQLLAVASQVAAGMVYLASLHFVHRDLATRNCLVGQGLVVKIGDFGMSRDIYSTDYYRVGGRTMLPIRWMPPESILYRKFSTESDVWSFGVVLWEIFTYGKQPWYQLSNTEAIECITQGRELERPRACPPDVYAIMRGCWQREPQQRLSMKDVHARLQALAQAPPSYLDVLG

| Molecule | IC50 [1] | XTT assay of survival of MG139 cells (TrkA+/p75-), 72 hr, EC50 [2] | trypan blue survival assay of PC12 cells (TrkA+/p75+), 72 hr, EC50 [2] | IC50 [3] | IC50 [4] | IC50 [5] | neurite outgrowth of PC12 cells, 48 hr, EC50 [2] | percent of ^125I-NGF binding left at the plateau of the competition curve [3] | percent of the cold-chase stable ^125I-NGF binding competed away [6] | percent of the protein as heterodimer Htm1 in the 1:1 mixture (Mix1a) [7] | percent of the protein as heterodimer Htm1 in the 1:2 mixture (Mix1) [7] |
| --- | --- | --- | --- | --- | --- | --- | --- | --- | --- | --- | --- |
| 7-84-103 NGF mutein (F7A/H84A/R103A) (ligand) | 15000 pM | 17000 pM | 1260 pM | 2450 pM | 11500 pM | 1900 pM | – | – | – | – | – |
| Heteromutein 1 (heterodimer of the Δ9/13 and 7-84-103 NGF muteins) (from UniProt P01139 122-241) (complex) | 640 pM | 19000 pM | 470 pM | 590 pM | 670 pM | 530 pM | 1800 pM | – | – | – | – |
| wild-type nerve growth factor (unlabelled) (from UniProt P01139 122-241) (ligand) | – | – | 280 pM | 250 pM | 30 pM | – | – | – | – | – | – |
| Δ9/13 NGF mutein (from UniProt P01139 122-241) (ligand) | – | – | – | 460 pM | – | 510 pM | – | 20% | 27% | – | – |
| B1 | – | – | – | – | – | – | – | – | – | 40% in Mix1a | 37.5% in Mix1 |
